Test results published in PMC9224634, “Noninvasive Mapping of Angiotensin Converting Enzyme-2 in Pigeons Using Micro Positron Emission Tomography” (Life, 2022).

Tests used:
ACE2 [1] = molecular target: ACE2; design: method as in earlier work; details: ACE2-specific peptide inhibitor; ref 10 (Huang et al.); cited from earlier work
ACE2 [2] = molecular target: ACE2; design: method as in PMID 34174177; details: cited from earlier work
ACE2 [3] = experiment: in vivo; details: female, iv, 15 MBq
Procedure: Injection route: Chloral hydrate 10% was used for intramuscular anesthesia.
Micro PET/CT imaging: Four healthy pigeons (female) were injected with 15 MBq ^68Ga-HZ20 through the pterygoid vein, and then dynamic imaging was performed for 40 min to observe the dynamic distribution of the probe in the body. The images were acquired for 30 min, 40 min and 60 min, with a single PET scan time of 600 s. The Avator software was used to display the images, outline the region of interest for the main organs, record the maximum standard uptake values for the outlined areas, and calculate the dynamic changes in SUVmax for different organs. At the end of the 60 min imaging, the pigeons were euthanized and the main organs were obtained for in vitro imaging.

Ac-GDYSHCSPLRYYPWWKCTYPDPEGGG-NH2 (disulfide) [DX600]
Ki (ACE2 [1]): 2.8 nM
Kd (ACE2 [2]): 98.7 nM

CC(C)C[C@@H]1NC(=O)[C@@H]2CCCN2C(=O)[C@H](CO)NC(=O)[C@@H](NC(=O)[C@H](Cc2c[nH]cn2)NC(=O)[C@H](CO)NC(=O)[C@H](Cc2ccc(O)cc2)NC(=O)[C@H](CC(=O)O)NC(=O)CNC(=O)CN2CCN(CC(=O)O)CCN(CC(=O)O)CCN(CC(=O)O)CC2)CSSC[C@@H](C(=O)N[C@H](C(=O)N[C@@H](Cc2ccc(O)cc2)C(=O)N2CCC[C@H]2C(=O)N[C@@H](CC(=O)O)C(=O)N2CCC[C@H]2C(=O)N[C@@H](CCC(=O)O)C(=O)NCC(=O)NCC(=O)NCC(N)=O)[C@@H](C)O)NC(=O)[C@H](CCCCN)NC(=O)[C@H](Cc2c[nH]c3ccccc23)NC(=O)[C@H](Cc2c[nH]c3ccccc23)NC(=O)[C@@H]2CCCN2C(=O)[C@H](Cc2ccc(O)cc2)NC(=O)[C@H](Cc2ccc(O)cc2)NC(=O)[C@H](CCCNC(=N)N)NC1=O [68Ga-HZ20, metal not drawn]
SUV at 40 min (ACE2 [3]; SUVmax heart, final): 0.84 SUV
SUV at 0 h (ACE2 [3]; SUVmax heart, initial): 3.08 SUV
SUV at 20 min (ACE2 [3]; SUVmax kidney): 6.95 SUV
SUV at 20 min (ACE2 [3]; SUVmax lung): 1.11 SUV
SUV at 1 h (ACE2 [3]; kidney uptake (SUV)): 3.05 SUV
SUV at 1 h (ACE2 [3]; liver uptake (SUV)): 0.51 SUV
SUV at 40 min (ACE2 [3]; liver uptake (SUVmax)): 2.51 SUV
SUV (ACE2 [3]; liver uptake (SUVmax), initial): 0.91 SUV
SUV at 1 h (ACE2 [3]; lung uptake (SUV)): 0.41 SUV
SUV at 1 h (ACE2 [3]; stomach uptake (SUV)): 0.52 SUV
SUV at 40 min (ACE2 [3]; stomach uptake (SUVmax), peak): 0.63 SUV
